Assay results as given in the nanobody polyreactivity screen of Harvey et al. (2022).

Assay: yeast display, Sf9 membrane polyspecificity reagent, FACS + sequencing; frameworks hold sequencing errors
Procedure, shortened: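 Genes from sorted yeast were amplified by colony PCR, read by MiSeq 2 × 250 sequencing and filtered on CDR length. These cells carried a synthetic nanobody library in Saccharomyces cerevisiae BJ5465 and were sorted by FACS into low and high (top ~1%) gates on anti-HA and streptavidin fluorescence. Polyreactivity is labelled according to the gate of origin.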

Sequence | polyreactivity (PSR sort gate)
QVQLVESGGGLVQAGGSLRLSCAASGRILYDYDMGWYRQAPGKERELVATISRGGGTNYADSVKGRFTISRDNAKNNVYLQMNSLKPEDTAVYYCAAYYSSDGDYWGQGTQVTVSS | low polyreactivity
QVQLVESGGGLVQAGGSLRLSCAASGRILYGYTMGWYRQAPGKERELVAAISSNGDSTYYADSVKGRFTISRDNAKNTVYLQLNSLKPEDTAVYYCAAVSIGPGEYDYWGQGTQVTVSS | low polyreactivity
QVQLVESGGGLVQAGGSLRLSCAASGRILYSYAMGWYRQAPGKERELVAAISSTGSTYYADSVKGRFTISRDNAKNTVYLQMNSLKPEDTAVYYCAATFYPYQVHHYYYWGKGTQVTVSS | low polyreactivity
QVQLVESGGGLVQAGGSLRLSCAASGRILYSYAMGWYRQAPGKERELVADITQRGGTTDYADSVKGRFTISRDNAKTTVYVQMNSLKPEDTAVYYCNANSYRSYGGRGGVEYDYWGEGTQVTVSS | low polyreactivity
QVQLVESGGGLVQAGGSLRLSCAASGRILYSYTMGWYRPAPGKEREFVAAITRSGGGTYYADSVKGRFTISRDNAKNTVYLQMNSLKPEDTAVYYCAATRNPYRRSNYDYWGQGTQVTVSS | high polyreactivity
QVQLVESGGGLVQAGGSLRLSCAASGRILYWYAMGGYRQAPGKERELVAGIDWSGGSTYYADSVKGRFTISRDNAKNTVYLQMNSLKPEDTAVYYCNAVQNRGRGSHRGESTYYYWGQGTQVTVSS | low polyreactivity
QVQLVESGGGLVQAGGSLRLSCAASGRILYYYAMGWYRQAPGKERELVAAITWGGGSTYYADSVKGRFTISRDNAKNTVYLQMNSLKPEDTAVYYCNRTFRSRLPTSRGYDYWGQGTQVTVSS | low polyreactivity
QVQLVESGGGLVQAGGSLRLSCAASGRINAMGWYRQAPGKERELVAVITLRGGSTYYADSVKGRFTISRDNAKNTGYLQMNSLKPEDTAVYYCAAETLVSFWFDYWGQGTQVTVSS | low polyreactivity
QVQLVESGGGLVQAGGSLRLSCAASGRIRFYAMGWYIQAPGKERELVAAISSSGGSTYYADSVKGRFTISRDNAKNTVYLQMNSLKPEDTAVYYCAAAWYYLGTRAQLYDYWGQGTQVTVSS | low polyreactivity
QVQLVESGGGLVQAGGSLRLSCAASGRIRRYTMGWYRQAPGKVRELVASISGNGGSTYYADSVKGRFTISRDNAKNTVYLQMNSLKPEDTAVYYCARTKQEYTFGQFYLGDYWGQGTQVTVSS | low polyreactivity
QVQLVESGGGLVQAGGSLRLSCAASGRISAFNAMGWYRQAPGKERELVAAINVSGGNTYYADSVKGRFTISRDNAKNTVYLQMNSLKPEDTAVYYCAAERRRWGLDYYYWGQGTQVTVSS | high polyreactivity
QVQLVESGGGLVQAGGSLRLSCAASGRISESNDMGWSRQAPWKERELVAAISSSGGSTYYADSVKGRFTISRDNAKNTVYLQMNSLKPEDTAVYYCNAVYYRTVLKIGVYEYDYWGQGTQVTVSS | low polyreactivity
QVQLVESGGGLVQAGGSLRLSCAASGRISFRILWDGIDRRLGKKGSWLPLLTNTGSTNYADSVKGRFTISRDNAKNTVYLQIHSLKPEDTAVYDCNADPTGGSSYPAYFEYDYWGQGTQVTVSS | low polyreactivity
QVQLVESGGGLVQAGGSLRLSCAASGRISFRYAMGWSRQAPGKEWELVAAINRGGITNYADSVKGRFTISRDNAKNTVYFQMNSLKPEDTAVYYCAARYASPRYKSKMDYWGQGTQVTVSS | high polyreactivity
QVQLVESGGGLVQAGGSLRLSCAASGRISGVNAMGWYRQAPGKERELVATISGSGGRTYYADSVKGRFTISRDNAKNTVYLQMNSLKPEDTAVYYCNTLVQRGGYFSLRFDYWGQGTQVTVSS | low polyreactivity
QVQLVESGGGLVQAGGSLRLSCAASGRISLFNAMGWYRQAPGKERELVAAITYTGGSTYYADSVKGRFTISRDNAKNTVYLQMNSLKPEDTAVYYCAAEYYYVYTYDYWGQGTQVTVSS | high polyreactivity
QVQLVESGGGLVQAGGSLRLSCAASGRISLGNAMGWYRQAPGKERELVAVITRGGRTSYADSVKGRFTISRDNAKNTVYLQMNSLKPEDTAVYYCAAESPVYHLVTYDYWGQGTQVTVSS | high polyreactivity
QVQLVESGGGLVQAGGSLRLSCAASGRISLRNGMGWYRQAPGKERELVAAISRGGSTYYADSVKGRFTISRDNAKNTVYLHMNSLKPEDTAVYYCNAYIRPIYVDDDYWGQSTQVTVSS | low polyreactivity
QVQLVESGGGLVQAGGSLRLSCAASGRISLVNAMGWYRQAPGKERELVAAITYTGGSTYYADSVKGRFTISRDNAKNTVYLQMNSLKPEDTAVYYCAAEYYYVYTYDYWGQGTQVTVSS | high polyreactivity
QVQLVESGGGLVQAGGSLRLSCAASGRISLYAMGWYRQAPGKEREMVAAINGRGGNTYYADSVKGRFTISRDNAKNTVYLQMNSLKPEDTAVYYCNAVTVNGPYGYDYWGQGTQVTVSS | high polyreactivity
QVQLVESGGGLVQAGGSLRLSCAASGRISQHNAMGWYRQAPGKERELVAAISWIGTSTYYADSVKGRFTISRDNAKNTVYLQMNSLKPEDTAVYYGWSTRGPPYIYLNYNYWGQGTQVTVSS | low polyreactivity
QVQLVESGGGLVQAGGSLRLSCAASGRISQTNAMGWYRQAPGKERELVAAISWRGGSTYYADSVKGRFTISRDNAKNTVYLQMNSLKPEDTAVYYCAVRGKYDRHYYWGQGTQVTVSS | high polyreactivity

Sequence | polyreactivity (PSR sort gate)
QVQLVESGGGLVQAGGSLRLSCAASGRISRCYVMGRYRHAPGTERELVAAITWNSGSTYYADSVKGRFTISRDNAKNTVYLQMNSLTPEDTAVYYCAGVLYSRYQQYDYWGQGTQVTVSS | high polyreactivity
QVQLVESGGGLVQAGGSLRLSCAASGRISRSKTMGWYRQATGKERELFAVINTWIGGSTYYADSVKGRFTISRDNAKNTVYLQMNRQKPEDTAVYYCAADATLWDWWLDYDYWGQVTQVTVSS | high polyreactivity
QVQLVESGGGLVQAGGSLRLSCAASGRISRSNTMGWYRQGPGKERELVAAISRGGGSTYYADSVKGRFTISRDNAKNTVYLQMNSLKPEDTAVDYCAKAFRGHYWRQGTQVTVSS | high polyreactivity
QVQLVESGGGLVQAGGSLRLSCAASGRISSAYAMGWYRQAPGKERELVAAISSGTRTNYADSVKGRFTMSRDNAKNTVYLQMNSLKPEDTAVYYCNAVPGYVYYYQYWGQGTQVTVSS | high polyreactivity
QVQLVESGGGLVQAGGSLRLSCAASGRISSNVMGWYRQAPGKERELVAAISVSGARTYYADSVKGRFTISRDNAKNTVYLQMNSLKPEDTAVYDCAAVYGGVYYGGDYWGQGTQVTVSS | high polyreactivity
QVQLVESGGGLVQAGGSLRLSCAASGRISSYYVMGWYRQAPGKERELVAAITGGDSTNYADSVKGRFTISRDNAKNTVYLQMNSLKPEDTAVYYCNAYYWYLDDYWGQGSQVTVSS | high polyreactivity
QVQLVESGGGLVQAGGSLRLSCAASGRISTYYTMGWYRQAPGKERELVAAISWSGTSTYYADSVKGRFTISRDNAKNTVYLQMNSLKPEDTAVYYCNARWRYPLDSVTDDYWGQGTQVTVSS | high polyreactivity
QVQLVESGGGLVQAGGSLRLSCAASGRISVRIYAMGWYRQAPGKERELVAIISRSGGSTYYADSVKGRFTISRDNAKTTVYLQMNSLKPQDTAVYYCNARWSFSYTVWVASYWCLDDYWGQGTQVTVSS | high polyreactivity
QVQLVESGGGLVQAGGSLRLSCAASGRISVVNAMGWYRQAPGQERELVAAIRRASTNYADSVKGRFTISRDNAKKTVYLQMNSLKPEDTAVYYCAARVYGINIFEYWGQATQVTVSS | high polyreactivity
QVQLVESGGGLVQAGGSLRLSCAASGRISVYNAMGWYRQAPGKERELVAAISRGSTNYADSVKGRFTISRDNAKNTVYLQMNSLKPEDTAVYYCAARSVSFPWRRYAGYDYWGQGTQVTVSS | high polyreactivity
QVQLVESGGGLVQAGGSLRLSCAASGRISYTYSAMGWYRQAPGKERELVAAITRRGGSTSYADSVKGRFTISRDNAKNTVYLQMNSLKPDDTAVYYCAAVGSFHIVDYWGQGTQVTVSS | high polyreactivity
QVQLVESGGGLVQAGGSLRLSCAASGRIVADYAMGWYRQAPGKERELVAAIRGSGGDTYYADSVKGRFTISRDNAKNTDYLQMNSLKPEDTAVYYCNAVDTYDLDNDYWGQGTQVTVSS | low polyreactivity
QVQLVESGGGLVQAGGSLRLSCAASGRIVANAMGWYRQAPGKESELVAAITATYYADSVKGRFTISRDNAKNTVYLQMNSLKPEDTAVYYFNAYLSPKQPLSPPDPSFEGGYWGQGTQVTVSS | low polyreactivity
QVQLVESGGGLVQAGGSLRLSCAASGRIVARYAMGWYRQAPGKERELVAAISPVGSTYYADSVKGRFTISRDNAKNTVYLQMTSLNPEDTGVYYCNAYNTRRSAPYVWRTYDYWGQGTQVTVSS | high polyreactivity
QVQLVESGGGLVQAGGSLRLSCAASGRIVGRNAMGWYRQAPGKERELVAAISSGGGRTYYADSVKGRFTISRDNAKNTVYLQMNSLKPEDTAVYYCNAGWRGRFYYWGQGTQVTVSS | high polyreactivity
QVQLVESGGGLVQAGGSLRLSCAASGRIVGRYAMGWYRQAPGKERELVAAISWSGGSTYYADSVKGRFTISRDNAKNTVYLQKNSLKPEDTAGYYCAADYDSYFRLYNYWGQGTQVTVSS | high polyreactivity
QVQLVESGGGLVQAGGSLRLSCAASGRIVPGNVMGWYRQAPGKERELVAAISSSGGSTYYADSVKGRFTISRDNAKNTVYLQMNSLKPEDTAVYYCNVRSGGKRRYSGRVDYWGQGTQVTVSS | low polyreactivity
QVQLVESGGGLVQAGGSLRLSCAASGRIVRNAIGWYRQAPGKERELVAAISRSGGSTYYADSVKGRFTISRDNAKNTVYLQMNSLKPEDTAVYYCDKRSTSQSLQGEYWGQGTQVTVSS | high polyreactivity
QVQLVESGGGLVQAGGSLRLSCAASGRIVSVNAMGWYRQAPGKERVLVAAITSGGRTNYADSVKGRFTISRDNAKNTVYLQMNSLNPEDTAVYFCAAPYLKGGEDEYWGQGTQVTVSS | high polyreactivity
QVQLVESGGGLVQAGGSLRLSCAASGRIWVYAMGWYRQAPGKERELVATITYNSGRTYYADSVKGRFTISRDNAKNTVYLQMNSLKPEDTAVYYCNADFWYSYRRGYGYWGQGTQVTVSS | high polyreactivity
QVQLVESGGGLVQAGGSLRLSCAASGRIYDGYAMGWYRQAPGKERELVATISSGGSTYYADSVKGRFTISRDNAKNNVYLQMNSLKPEDTAVYYCAADSWVQFDYWGQGTQVTVSS | low polyreactivity
